In the data set the target is T1, pVIc-TMR (UniProt P03274 240-250).
T1 chain: GVQSLKRRRCF
Put plainly: fluorescence polarization. In general terms: In fluorescence polarisation assays a small probe gives low polarisation when free and higher when bound to something large.

B1: 30 bp dsDNA (dsDNA)
DNA 1: GACGACTAGGACGACGACGAGGATGACGAC
DNA 2: GTCGTCATCCTCGTCGTCGTCCTAGTCGTC
As for B1, binding was characterised by a dissociation constant (Kd) of 262 ± 88 nM.

Values taken from publication PMC4797294.
